The values that follow come from article PMC4299175.

The assay deals with GST-tagged recombinant phosphorylated human ERK2 (human) (UniProt P28482).
Sequence of UniProt P28482 (P28482 whole entry): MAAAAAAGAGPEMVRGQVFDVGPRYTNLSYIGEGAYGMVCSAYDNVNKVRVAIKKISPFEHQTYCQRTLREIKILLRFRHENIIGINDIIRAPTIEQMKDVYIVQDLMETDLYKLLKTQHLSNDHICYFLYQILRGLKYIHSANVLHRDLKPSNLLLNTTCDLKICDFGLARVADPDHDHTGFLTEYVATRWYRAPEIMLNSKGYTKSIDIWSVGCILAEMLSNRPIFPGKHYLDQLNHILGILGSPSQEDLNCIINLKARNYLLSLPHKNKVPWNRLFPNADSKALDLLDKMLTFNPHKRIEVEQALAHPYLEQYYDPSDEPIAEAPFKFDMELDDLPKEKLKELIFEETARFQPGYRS

B1: GST-S147P, glutathione-S-transferase-tagged full-length human DUSP5 serine 147 proline mutant (enzyme)
chain: MKVTSLDGRQLRKMLRKEAAARCVVLDCRPYLAFAASNVRGSLNVNLNSVVLRRARGGAVSARYVLPDEAARARLLQEGGGGVAAVVVLDQGSRHWQKLREESAARVVLTSLLACLPAGPRVYFLKGGYETFYSEYPECCVDVKPIPQEKIESERALISQCGKPVVNVSYRPAYDQGGPVEILPFLYLGSAYHASKCEFLANLHITALLNVSRRTSEACATHLHYKWIPVEDSHTADISSHFQEAIDFIDCVREKGGKVLVHCEAGISRSPTICMAYLMKTKQFRLKEAFDYIKQRRSMVSPNFGFMGQLLQYESEILPSTPNPQPPSCQGEAAGSSLIGHLQTLSPDMQGAYCTFPASVLAPVPTHSTVSELSRSPVATATSC
B1: the dephosphorylation of pERK2 by western blot, dose curve 0.1-10 nM enzyme, 15 min; concentration at which the pERK band is completely absent (0.5 nM for GST-DUSP5) was found to be 5 nM.
